Values quoted from earlier work in paper PMC10919381.
Read-outs that look alike come from different tables or passages of the source.

Experiments:
[1] = molecular target: CBP/p300 TAZ1 (Homo sapiens) (UniProt Q92793)
[2] = molecular target: CBP/p300 TAZ1 (Homo sapiens) (UniProt Q92793); remark: listed apart in the source

Sequence of UniProt Q92793 (Q92793 347-433): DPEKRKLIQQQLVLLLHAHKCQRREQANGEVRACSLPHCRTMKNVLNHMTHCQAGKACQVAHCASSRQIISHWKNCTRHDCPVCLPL

Kd [1] [nM]	Kd [2] [nM]	Substance
10	–	HIF-1α (from UniProt Q16665)
–	10	CITED2 (from UniProt Q99967)
